Assay results taken from the RNAGym collection of RNA variant scans (doi:10.7554/elife.80360).

B1: Twister Ribozyme (parent)
chain: AACACUGCCAAUGCCGGUCCCAAGCCCGGAUAAAAGUGGAGGGGGCGG

Variants of: B1
Assay: self-cleavage, relative activity (ratio to wild type); higher = more cleavage; co-transcriptional

Point of comparison: AACACUGCCAAUCCCGGUCCCAAGCCCGGAUAAAAGUUGAGGGGGCGG [G13C G38U], self-cleavage 0.158. Against it:
- AACACUGCCAAUCCCGGUCCCAAGCCAGGAUAAAAGUGGAGGGGGCGG [G13C C27A] — lower, 0.0712
- AACACUGCCAAUCCCGGUCCCAAGCCUGGAUAAAAGUGGAGGGGGCGG [G13C C27U] — lower, 0.0915
- AACACUGCCAAUCCCGGUCCCAAGCCCGGAUAAAAGUGGAGGGGGAGG [G13C C46A] — higher, 0.232
- AACACUGCCAAUCCCGGUCCCAAGCCCGGAUAAAAGUGGAGGGGGGGG [G13C C46G] — higher, 0.268
- AACACUGCCAAUCCCGGUCCCAAGCCCGGAUAAAAGUGGAGGGGGUGG [G13C C46U] — higher, 0.485
- AACACUGCCAAUCCCAGUCCCAAGCCCGGAUAAAAGUGGAGGGGGCGG [G13C G16A] — lower, 0.129
- AACACUGCCAAUCCCCGUCCCAAGCCCGGAUAAAAGUGGAGGGGGCGG [G13C G16C] — lower, 0.044
- AACACUGCCAAUCCCUGUCCCAAGCCCGGAUAAAAGUGGAGGGGGCGG [G13C G16U] — lower, 0.132
- AACACUGCCAAUCCCGCUCCCAAGCCCGGAUAAAAGUGGAGGGGGCGG [G13C G17C] — lower, 0.0805
- AACACUGCCAAUCCCGUUCCCAAGCCCGGAUAAAAGUGGAGGGGGCGG [G13C G17U] — lower, 0.114
- AACACUGCCAAUCCCGGUCCCAAACCCGGAUAAAAGUGGAGGGGGCGG [G13C G24A] — lower, 0.0986
- AACACUGCCAAUCCCGGUCCCAACCCCGGAUAAAAGUGGAGGGGGCGG [G13C G24C] — lower, 0.0811
- AACACUGCCAAUCCCGGUCCCAAGCCCGGAUAAAAUUGGAGGGGGCGG [G13C G36U] — lower, 0.0844
- AACACUGCCAAUCCCGGUCCCAAGCCCGGAUAAAAGUAGAGGGGGCGG [G13C G38A] — higher, 0.219
- AACACUGCCAAUCCCGGUCCCAAGCCCGGAUAAAAGUGAAGGGGGCGG [G13C G39A] — lower, 0.118
- AACACUGCCAAUCCCGGUCCCAAGCCCGGAUAAAAGUGGAGAGGGCGG [G13C G42A] — lower, 0.12
- AACACUGCCAAUCCCGGUCCCAAGCCCGGAUAAAAGUGGAGGUGGCGG [G13C G43U] — lower, 0.128
- AACACUGCCAAUCCCGGUCCCAAGCCCGGAUAAAAGUGGAGGGAGCGG [G13C G44A] — higher, 0.584
- AACACUGCCAAUCCCGGUCCCAAGCCCGGAUAAAAGUGGAGGGGUCGG [G13C G45U] — lower, 0.144
- AACACUGCCAAUCCCGGUCCCAAGCCCGGAUAAAAGUGGAGGGGGCGA [G13C G48A] — lower, 0.115
- AACACUGCCAAUCCCGGUCCCAAGCCCGGAUAAAAGUGGAGGGGGCGC [G13C G48C] — higher, 0.249
- AACACUGCCAAUCCCGGUCCCAAGCCCGGAUAAAAGUGGAGGGGGCGU [G13C G48U] — higher, 0.217
- AACACUGCCAAUCCCGGCCCCAAGCCCGGAUAAAAGUGGAGGGGGCGG [G13C U18C] — lower, 0.0885
- AACACUGCCAAUCCCGGUCCCAAGCCCGGACAAAAGUGGAGGGGGCGG [G13C U31C] — higher, 0.552
- AACACUGCCAAUCCCGGUCCCAAGCCCGGAUAAAAGAGGAGGGGGCGG [G13C U37A] — lower, 0.075
- AACACUGCCAAUUCCGGUCCCCAGCCCGGAUAAAAGUGGAGGGGGCGG [G13U A22C] — higher, 0.708
- AACACUGCCAAUUCCGGUCCCAGGCCCGGAUAAAAGUGGAGGGGGCGG [G13U A23G] — lower, 0.0827
- AACACUGCCAAUUCCGGUCCCAAGCCCGGCUAAAAGUGGAGGGGGCGG [G13U A30C] — higher, 0.665
- AACACUGCCAAUUCCGGUCCCAAGCCCGGGUAAAAGUGGAGGGGGCGG [G13U A30G] — higher, 0.926
- AACACUGCCAAUUCCGGUCCCAAGCCCGGAUCAAAGUGGAGGGGGCGG [G13U A32C] — higher, 0.595
- AACACUGCCAAUUCCGGUCCCAAGCCCGGAUACAAGUGGAGGGGGCGG [G13U A33C] — higher, 0.563
- AACACUGCCAAUUCCGGUCCCAAGCCCGGAUAACAGUGGAGGGGGCGG [G13U A34C] — lower, 0.083
- AACACUGCCAAUUCCGGUCCCAAGCCCGGAUAAUAGUGGAGGGGGCGG [G13U A34U] — higher, 0.199
- AACACUGCCAAUUCCGGUCCCAAGCCCGGAUAAACGUGGAGGGGGCGG [G13U A35C] — higher, 0.587
- AACACUGCCAAUUCCGGUCCCAAGCCCGGAUAAAUGUGGAGGGGGCGG [G13U A35U] — higher, 0.696
- AACACUGCCAAUUCCGGUCCCAAGCCCGGAUAAAAGUGGCGGGGGCGG [G13U A40C] — lower, 0.129
- AACACUGCCAAUUCCGGUCCCAAGCCCGGAUAAAAGUGGUGGGGGCGG [G13U A40U] — higher, 0.16
- AACACUGCCAAUUACGGUCCCAAGCCCGGAUAAAAGUGGAGGGGGCGG [G13U C14A] — higher, 0.687
- AACACUGCCAAUUGCGGUCCCAAGCCCGGAUAAAAGUGGAGGGGGCGG [G13U C14G] — higher, 0.512
- AACACUGCCAAUUCAGGUCCCAAGCCCGGAUAAAAGUGGAGGGGGCGG [G13U C15A] — lower, 0.11
- AACACUGCCAAUUCGGGUCCCAAGCCCGGAUAAAAGUGGAGGGGGCGG [G13U C15G] — lower, 0.108
- AACACUGCCAAUUCUGGUCCCAAGCCCGGAUAAAAGUGGAGGGGGCGG [G13U C15U] — higher, 0.317
- AACACUGCCAAUUCCGGUACCAAGCCCGGAUAAAAGUGGAGGGGGCGG [G13U C19A] — lower, 0.0828
- AACACUGCCAAUUCCGGUUCCAAGCCCGGAUAAAAGUGGAGGGGGCGG [G13U C19U] — lower, 0.0924
- AACACUGCCAAUUCCGGUCACAAGCCCGGAUAAAAGUGGAGGGGGCGG [G13U C20A] — lower, 0.0934
- AACACUGCCAAUUCCGGUCGCAAGCCCGGAUAAAAGUGGAGGGGGCGG [G13U C20G] — lower, 0.1
- AACACUGCCAAUUCCGGUCCUAAGCCCGGAUAAAAGUGGAGGGGGCGG [G13U C21U] — lower, 0.0908
- AACACUGCCAAUUCCGGUCCCAAGGCCGGAUAAAAGUGGAGGGGGCGG [G13U C25G] — lower, 0.0724
- AACACUGCCAAUUCCGGUCCCAAGCGCGGAUAAAAGUGGAGGGGGCGG [G13U C26G] — lower, 0.0668
- AACACUGCCAAUUCCGGUCCCAAGCUCGGAUAAAAGUGGAGGGGGCGG [G13U C26U] — lower, 0.109
- AACACUGCCAAUUCCAGUCCCAAGCCCGGAUAAAAGUGGAGGGGGCGG [G13U G16A] — higher, 0.302
- AACACUGCCAAUUCCGAUCCCAAGCCCGGAUAAAAGUGGAGGGGGCGG [G13U G17A] — lower, 0.078
- AACACUGCCAAUUCCGUUCCCAAGCCCGGAUAAAAGUGGAGGGGGCGG [G13U G17U] — lower, 0.101
